Source: article PMC10244696, “Thioredoxin TRXo1 is involved in ABA perception via PYR1 redox regulation” (Redox Biology, 2023)
Substitutions are numbered along the chain they refer to.

B1: PYR1 in Arabidopsis leaf extracts, O49686 1-191 (receptor)
chain: MPSELTPEERSELKNSIAEFHTYQLDPGSCSSLHAQRIHAPPELVWSIVRRFDKPQTYKHFIKSCSVEQNFEMRVGCTRDVIVISGLPANTSTERLDILDDERRVTGFSIIGGEHRLTNYKSVTTVHRFEKENRIWTVVLESYVVDMPEGNSEDDTRMFADTVVKLNLQKLATVAEAMARNSGDGSGSQVT
B2: HisAtPYR1C77S (receptor, Arabidopsis thaliana, UniProt O49686 1-191, looked up)
chain: B1 chain with C77S
notes: PYR1 of Arabidopsis thaliana (At4g17870) with Cys77 replaced by Ser; cloned in NcoI/EcoRI of pETM11; source: E. coli BL21, purified (Ni-NTA agarose)
B3: recombinant HisAtPYR1, O49686 1-191 (receptor)
chain: B1 chain
B4: HisAtPYR1C65S (receptor, Arabidopsis thaliana, UniProt O49686 1-191, looked up)
chain: B1 chain with C65S
notes: PYR1 of Arabidopsis thaliana (At4g17870) with Cys65 replaced by Ser; cloned in NcoI/EcoRI of pETM11; source: E. coli BL21, purified (Ni-NTA agarose)
B5: HisAtPYR1C30S (receptor, Arabidopsis thaliana, UniProt O49686 1-191, looked up)
chain: B1 chain with C30S
notes: PYR1 of Arabidopsis thaliana (At4g17870) with Cys30 replaced by Ser; cloned in NcoI/EcoRI of pETM11; source: E. coli BL21, purified (Ni-NTA agarose)

How the values were obtained:
[1] = target: T1, PYR1 in Arabidopsis leaf extracts (Arabidopsis thaliana (endogenous in Col-0 leaves)), O49686; assay: non-reducing SDS-PAGE and Western blot of oligomeric forms; leaf extracts of Arabidopsis, anti-PYR1; wild type extract without blocking or alkylating agent, also with 50 mM DTT or 4 mM H2O2 added; WT, KO and OEX Attrxo1 plants with or without 10 μM ABA for 48 h (extracts with 5 mM NEM); conditions: remark: other sources report otherwise
T1 chain: B1 chain

[2] = target: the molecule itself; assay: SDS-PAGE and Western blot of oligomeric forms; recombinant HisAtPYR1 or its Cys mutants in 20 mM Tris-HCl pH 7.9, untreated, with 4 mM H2O2, or 2 mM DTT and then 4 mM H2O2 (30 min, room temperature); 2.5 μg on SDS-PAGE, anti-AtPYR1
[3] = target: T2, recombinant HisAtPYR1 (Arabidopsis thaliana), O49686; assay: as above; conditions: remark: other sources report otherwise
T2 chain: B1 chain

Binder | amount of dimers, fold of PYR1 [2] [fold] | further results
B1 | – | stoichiometry N [1]: 2
B2 | 0.6 | –
B3 | – | stoichiometry N [3]: 2
B4 | 2.3 | –
B5 | 0.3 | –
